Results from patent US20250215104A1 (WALDEN BIOSCIENCES, published 2025).
Numbering of substitutions follows the chain as printed.

Experiments:
[1] = biological target: T1, human soluble urokinase plasminogen activator receptor (suPAR) (human, UniProt Q03405 23-303, limits assumed); assay: dissociation rate (kdis) on human suPAR; method not stated
T1 construct: also called hsuPAR; human suPAR
T1 sequence (Q03405 23-303 limits assumed): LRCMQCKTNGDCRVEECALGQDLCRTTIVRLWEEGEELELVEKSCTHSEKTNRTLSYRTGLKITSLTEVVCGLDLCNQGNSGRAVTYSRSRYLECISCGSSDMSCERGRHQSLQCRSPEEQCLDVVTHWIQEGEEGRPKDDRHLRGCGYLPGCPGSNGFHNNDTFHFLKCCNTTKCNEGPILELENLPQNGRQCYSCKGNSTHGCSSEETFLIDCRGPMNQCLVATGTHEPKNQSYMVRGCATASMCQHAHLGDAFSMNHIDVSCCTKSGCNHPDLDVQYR

[2] = biological target: T2, human soluble urokinase plasminogen activator receptor (suPAR) (human, UniProt Q03405 23-303, limits assumed); assay: BLI (Octet) off-rate screen of scFv clones
T2 construct: Column head says only 'human'; also called hsuPAR; human suPAR
T2 sequence (Q03405 23-303 limits assumed): as above

[3] = biological target: T3, cynomolgus soluble urokinase plasminogen activator receptor (suPAR) (cynomolgus, UniProt Q9GK78 23-303, limits assumed); assay: BLI (Octet) off-rate screen of scFv clones
T3 construct: Column head says only 'cynomologus'; also called cynomolgus suPAR; cynomolgus uPAR
T3 sequence (Q9GK78 23-303 limits assumed): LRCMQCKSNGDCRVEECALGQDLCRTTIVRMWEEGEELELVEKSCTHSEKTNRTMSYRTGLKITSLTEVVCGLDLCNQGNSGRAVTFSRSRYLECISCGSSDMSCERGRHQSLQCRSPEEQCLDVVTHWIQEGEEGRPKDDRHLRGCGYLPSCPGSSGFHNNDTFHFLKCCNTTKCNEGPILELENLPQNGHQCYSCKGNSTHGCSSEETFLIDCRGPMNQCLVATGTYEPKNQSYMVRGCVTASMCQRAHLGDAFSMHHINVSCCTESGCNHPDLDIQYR

B1: WAb0001 (antibody, V domains shown)
VH: QVQLVQSGAEVKKPGASVKVSCKASGYNIKDYYIHWVRQAPGQGLEWMGWISPDSGVTNYAQKFQGRVTMTRDTSTSTVYMELSSLRSEDTAVYYCARGYDVDWFVYWGQGTLVTVSS
VL: DIQMTQSPSSLSASVGDRVTITCSARQSVSYMYWYQQKPGKAPKLLIYRTSNLASGVPSRFSGSGSGTDFTLTISSLQPEDFATYYCQQYHSYPPTFGGGTKVEIK
notes: constant regions not tied to this antibody; also called WAb CD0001
In the case of B1, the koff [1] is reported as 3.04e-07 s⁻¹.

B2: WAb0009 (antibody, V domains shown)
VH: QVQLVQSGAEVKKPGASVKVSCKASGYTFTGHYVHWVRQAPGQGLEWMGWIDHENGNTIYDQKFQGRVTMTRDTSTSTVYMELSSLRSEDTAVYYCARGYDVDWFVYWGQGTLVTVSS
VL: B1 VL with Q27S
notes: constant regions not tied to this antibody; also called WAb CD0009
In the case of B2, the koff [1] is reported as 3.47e-07 s⁻¹.

B3: WAb0002 (antibody, V domains shown)
VH: B1 VH with D54S
VL: B1 VL
notes: constant regions not tied to this antibody; also called WAb CD0002
B3 showed a koff [1] of 8.37e-05 s⁻¹.

B4: suPAR_DB05_B06 (scFv, V domains shown)
VH: B2 VH with T28P, G31N, H32Y, V34M, N55G, N57S
VL: B1 VL with R26S
notes: Screened as scFv
B4 gave a koff [2] of 0.00213 s⁻¹ and a koff [3] of 0.000234 s⁻¹.

B5: suPAR_DB05_C02 (scFv, V domains shown)
VH: B2 VH with Y27D, G31S, H32Y, V34M, H53P, E54S
VL: B1 VL with Q27S
notes: Screened as scFv
Work on B5 yielded a koff [2] of 0.00375 s⁻¹ and a koff [3] of 0.00061 s⁻¹.

B6: suPAR_DB05_B02 (scFv, V domains shown)
VH: B1 VH with N28T, S52D, D54E, S55N, V57N, N59I
VL: B1 VL with Q27S
notes: Screened as scFv
In the case of B6, the koff [2] is reported as 0.00565 s⁻¹ and the koff [3] is reported as 0.000419 s⁻¹.

B7: suPAR_DB05_E04 (scFv, V domains shown)
VH: B2 VH with T28S, G31S, H32N, V34M
VL: B1 VL with Q27S
notes: Screened as scFv
With B7 the koff [2] was 0.00544 s⁻¹ and the koff [3] was 0.000354 s⁻¹.

B8: suPAR_DB05_D01 (scFv, V domains shown)
VH: B2 VH with Y27H, F29S, G31N, H32Y, V34M, N55G, I59S
VL: B1 VL with Q27S
notes: Screened as scFv
B8 was tested, and the koff [2] was 0.00533 s⁻¹ and the koff [3] was 0.000315 s⁻¹.

B9: suPAR_DB05_D10 (scFv, V domains shown)
VH: B2 VH with T30S, G31N, H32Y, V34I, Y100T
VL: B1 VL with S24R
notes: Screened as scFv
Binder B9 has a koff [2] of 0.006 s⁻¹ and a koff [3] of 0.000851 s⁻¹.

B10: suPAR_DB05_B08 (scFv, V domains shown)
VH: B2 VH with Y27N, T28A, T30S, D61A
VL: B1 VL
notes: Screened as scFv
For B10, the koff [2] was 0.00488 s⁻¹ and the koff [3] was 0.000129 s⁻¹.

B11: suPAR_DB05_D08 (scFv, V domains shown)
VH: B1 VH with N28T, I29F, K30T, D31R, I34M, M48V, S52D, D54H, V57G, V102I
VL: B1 VL
notes: Screened as scFv
Binder B11 has a koff [2] of 0.00471 s⁻¹ and a koff [3] of 7.69e-05 s⁻¹.

B12: suPAR_DB05_E03 (scFv, V domains shown)
VH: B2 VH with Y27H, F29L, T30N, G31S, H32Y, V34I, H53P, E54S, N55G
VL: B1 VL with Q27S
notes: Screened as scFv
Work on B12 yielded a koff [2] of 0.00535 s⁻¹ and a koff [3] of 0.000265 s⁻¹.

B13: suPAR_DB05_B03 (scFv, V domains shown)
VH: QVQLVQSGAEVKKPGASVKVSCKASGYTFTSYYIHWVRQAPGQGLEWIGWMDPNSGSAAYAQKFQGRVTMTRDTSTSTVYMELSSLRSEDTAVYYCARGYDVDWFVYWGQGTLVTVSS
VL: B1 VL with Q27S
notes: Screened as scFv
In the case of B13, the koff [2] is reported as 0.00366 s⁻¹ and the koff [3] is reported as 0.000311 s⁻¹.

B14: suPAR_DB05_E05 (scFv, V domains shown)
VH: B2 VH with T28N, G31N, H32Y, V34M, E54S, N57S
VL: B1 VL with Q27S
notes: Screened as scFv
For B14, the koff [2] was 0.00165 s⁻¹ and the koff [3] was 0.000298 s⁻¹.

B15: suPAR_DB05_D02 (scFv, V domains shown)
VH: B2 VH with F29I, H32N, V34M, N57S
VL: B1 VL with V29I
notes: Screened as scFv
For B15, the koff [2] was 0.00116 s⁻¹ and the koff [3] was 0.000435 s⁻¹.

B16: suPAR_DB05_D05 (scFv, V domains shown)
VH: B2 VH with G31N, H32Y, V34M, E54S, N57S
VL: B1 VL with S24R
notes: Screened as scFv
Work on B16 yielded a koff [2] of 0.001 s⁻¹ and a koff [3] of 0.000669 s⁻¹.

B17: suPAR_DB05_B09 (scFv, V domains shown)
VH: B2 VH with H32Y, V34M, H53P, E54S, N55G
VL: B1 VL with Q27S
notes: Screened as scFv
B17 showed a koff [2] of 0.00273 s⁻¹ and a koff [3] of 0.000583 s⁻¹.

B18: suPAR_DB05_C03 (scFv, V domains shown)
VH: B2 VH with G31N, H32Y, V34M, N55G, I59S, D61A
VL: B1 VL with S24R, Q27S
notes: Screened as scFv
For B18, the koff [2] was 0.00367 s⁻¹ and the koff [3] was 0.000455 s⁻¹.

B19: suPAR_DB05_D03 (scFv, V domains shown)
VH: B2 VH with T30G, G31N, H32Y, V34M, D61A, Y100N
VL: B1 VL with Q27S
notes: Screened as scFv
B19 was tested, and the koff [2] was 0.00345 s⁻¹ and the koff [3] was 0.00124 s⁻¹.

B20: suPAR_DB05_C09 (scFv, V domains shown)
VH: B1 VH with N28T, I29F, K30T, D31G, I34M, V57A, N59K, Y60V
VL: B1 VL with Q27S
notes: Screened as scFv
With B20 the koff [2] was 0.00384 s⁻¹ and the koff [3] was 0.000464 s⁻¹.

B21: suPAR_DB05_B11 (scFv, V domains shown)
VH: B2 VH with T30S, G31A, H32Y, V34M, D61A
VL: B1 VL with Q27S
notes: Screened as scFv
B21 gave a koff [2] of 0.00219 s⁻¹ and a koff [3] of 0.000431 s⁻¹.

B22: suPAR_DB05_D12 (scFv, V domains shown)
VH: B2 VH with Y27F, G31N, H32Y, V34F, H53P
VL: B1 VL with Q27S
notes: Screened as scFv
B22 showed a koff [2] of 0.00477 s⁻¹ and a koff [3] of 0.000352 s⁻¹.

B23: suPAR_DB05_D11 (scFv, V domains shown)
VH: B2 VH with F29L, H32Y, V34M, H35Q, H53P, N57S
VL: B1 VL with R26S, Q27S
notes: Screened as scFv
Binder B23 has a koff [2] of 0.00555 s⁻¹ and a koff [3] of 0.000775 s⁻¹.

B24: WAb0005 (antibody, V domains shown)
VH: B2 VH with T30I, H32S
VL: B1 VL with Q27S, N52S
notes: constant regions not tied to this antibody; also called WAb CD0005
Work on B24 yielded a koff [1] of 3.97e-07 s⁻¹.

B25: suPAR_DB05_C05 (scFv, V domains shown)
VH: B1 VH with D31S, S52D, D54N, V57G, K63N
VL: B1 VL with Q27S
notes: Screened as scFv
B25 gave a koff [2] of 0.00547 s⁻¹ and a koff [3] of 0.000202 s⁻¹.

B26: suPAR_DB05_C06 (scFv, V domains shown)
VH: B1 VH with Y27F, D31S, S52D, D54N, V57G
VL: B1 VL with Q27S
notes: Screened as scFv
In the case of B26, the koff [2] is reported as 0.00507 s⁻¹ and the koff [3] is reported as 0.000123 s⁻¹.

B27: suPAR_DB05_D09 (scFv, V domains shown)
VH: B2 VH with G31S, H32Y, V34M, H53P, D61A
VL: B1 VL with Q27S, N52S
notes: Screened as scFv
B27 showed a koff [2] of 0.00384 s⁻¹ and a koff [3] of 0.000666 s⁻¹.

B28: suPAR_DB05_B04 (scFv, V domains shown)
VH: B2 VH with G31T, H32Y, V34M, H53P, E54S
VL: B1 VL with Q27S
notes: Screened as scFv
In the case of B28, the koff [2] is reported as 0.00623 s⁻¹ and the koff [3] is reported as 0.000606 s⁻¹.

B29: suPAR_DB05_C11 (scFv, V domains shown)
VH: B1 VH with N28I, I29F, K30T, D31S, I34M, S52D, D54Y, V57A
VL: B1 VL with S24R, Q27S, V29I
notes: Screened as scFv
With B29 the koff [2] was 0.00335 s⁻¹ and the koff [3] was 0.000168 s⁻¹.

B30: suPAR_DB05_D06 (scFv, V domains shown)
VH: B2 VH with T30S, G31S, H32Y, V34M, Y100D
VL: B1 VL with Q27S
notes: Screened as scFv
Binder B30 has a koff [2] of 0.00345 s⁻¹ and a koff [3] of 0.000375 s⁻¹.

B31: suPAR_DB05_B01 (scFv, V domains shown)
VH: B2 VH with T28P, G31S, H32Y, V34M
VL: B1 VL with R26S, Q27S
notes: Screened as scFv
Work on B31 yielded a koff [2] of 0.00356 s⁻¹ and a koff [3] of 0.000232 s⁻¹.

B32: suPAR_DB05_C08 (scFv, V domains shown)
VH: B2 VH with G31S, H32Y, V34M, H53P
VL: B1 VL with S24R
notes: Screened as scFv
For B32, the koff [2] was 0.00284 s⁻¹ and the koff [3] was 0.000548 s⁻¹.

B33: suPAR_DB05_B05 (scFv, V domains shown)
VH: B2 VH with Y27N, T30S, H32Y, H53P, E54S
VL: B1 VL with Q27S
notes: Screened as scFv
B33 gave a koff [2] of 0.00417 s⁻¹ and a koff [3] of 0.000193 s⁻¹.

B34: WAb0003 (antibody, V domains shown)
VH: B1 VH with Y27F, S52D, D54E, S55N, V57S, N59I, A61D, V102I
VL: B1 VL with Q27S
notes: constant regions not tied to this antibody; also called WAb CD0003
Work on B34 yielded a koff [1] of 3.57e-07 s⁻¹.

B35: WAb0004 (antibody, V domains shown)
VH: B1 VH with Y27F, S52D, D54E, V57S, N59I, A61D, V102I
VL: B1 VL with Q27S
notes: constant regions not tied to this antibody; also called WAb CD0004
Binder B35 has a koff [1] of 2.61e-07 s⁻¹.

B36: suPAR_DB05_E01 (scFv, V domains shown)
VH: B2 VH with G31N, H32Y, V34M
VL: B1 VL with S24R, Q27S
notes: Screened as scFv
For B36, the koff [2] was 0.00208 s⁻¹ and the koff [3] was 0.000767 s⁻¹.

B37: suPAR_DB05_C07 (scFv, V domains shown)
VH: B2 VH with G31S, N55G, N57S, I59S
VL: B1 VL with S24R
notes: Screened as scFv
For B37, the koff [2] was 0.00431 s⁻¹ and the koff [3] was 0.000237 s⁻¹.

B38: suPAR_DB05_E02 (scFv, V domains shown)
VH: B13 VH with I34M, I48M, M51I, P53L, S57G, A59K, K63R
VL: B1 VL with Q27S
notes: Screened as scFv
Work on B38 yielded a koff [2] of 0.00517 s⁻¹ and a koff [3] of 0.000824 s⁻¹.

B39: suPAR_DB05_C04 (scFv, V domains shown)
VH: B1 VH with Y27F, S52D, D54E, S55N, V57N, N59I, A61D
VL: B1 VL with A54Q
notes: Screened as scFv
For B39, the koff [2] was 0.00452 s⁻¹ and the koff [3] was 0.000457 s⁻¹.
